Measured values as given in paper PMC11449929, “Structural basis of α-latrotoxin transition to a cation-selective pore” (Nature Communications, 2024).
Where “and” joins values, the source holds several entries; their conditions need not be identical. Equal entries are not always repeated.

Target: the molecule itself
Test: cryo-EM structure; α-LTX at 0.5 mg/ml in 25 mM Tris-HCl pH 8.0, 150 mM NaCl, 0.1 mM CaCl2, 0.2 mM MgCl2; 2D classification and 3D reconstruction of two tetrameric states (prepore, pore)

B1: α-latrotoxin (natural protein)
chain: EGEDLTLEEKAEICSELELQQKYVDIASNIIGDLSSLPIAGKIAGTIAAAAMTATHVASGRLDIEQTLLGCSDLPFDQIKEVLENRFNEIDRKLDSHSAALEEITKLVEKSISVVEKTRKQMNKRFDEVMKSIQDAKVSPIISKINNFARYFDTEKERIRGLKLNDYILKLEEPNGILLHFKESRTPTDDSLQAPLFSIIEEGYAVPKSIDDELAFKVLYALLYGTQTYVSVMFFLLEQYSFLANHYYEKGYLEKYDEYFNSLNNVFLDFKSSLVGTGTSNNEGLLDRVLQVLMTVKNSEFLGLEKNGVDEMLNEKINLFNKIKEEIEGKQKMTLSETPENFAQISFDKDITTPIGDWRDGREVRYAVQYASETLFSKISHWSDPVSVREKACPTLRMPVDQTRRNVLVFRKFDSSKPQLVGEITPYLSNFIDIDRDLYNAASNPDSAVGFKEFTKLNYDGANIRATFDHGRTVFHAAAKSGNDKIMFGLTFLAKSTELNQPDKKGYTPIHVAADSGNAGIVNLLIQRGVSINSKTYHFLQTPLHLAAQRGFVTTFQRLMESPEININERDKDGFTPLHYAIRGGERILEAFLNQISIDVNAKSNTGLTPFHLAIIKNDWPVASTLLGSKKVDINAVDENNITALHYAAILGYLETTKQLINLKEINANVVSSPGLLSALHYAILYKHDDVASFLMRSSNVNVNLKALGGITPLHLAVIQGRKQILSLMFDIGVNIEQKTDEKYTPLHLAAMSKYPELIQILLDQGSNFEAKTNSGATPLHLATFKGKSQAALILLNNEVNWRDTDENGQMPIHGAAMTGLLDVAQAIISIDATVVDIEDKNSDTPLNLAAQNSHIDVIKYFIDQGADINTRNKKGLAPLLAFSKKGNLDMVKYLFDKNANVYIADNDGMNFFYYAVQNGHLNIVKYAMSEKDKFEWSNTDNNRRDECPNEECAISHFAVCDAVQFDRIEIVKYFVGTLGNFAICGPLHQAARYGHLDIVKYLVEEEFLSVDGSKTDTPLCYASENGHFTVVQYLVSNGAKVNHDCGNGMTAIDKAITKNHLQVVQFLAANGVDFRRKNSRGTTPFLTAVAENALHIAEYLIREKRQDININEQNVDKDTALHLAVYYKNLQMIKLLIKYGIDVTIRNAYDKTALDIAIDAKFSNIVEYLKTKSGKFRR
notes: Tetramer in the presence of Ca2+/Mg2+; monomers, dimers and trimers stand in the same sample; Disulfide bonds seen: C34-C91 (CC1), C968-C973 (CC2), and CC3 and CC4 in AR15-19; the model ends at G1195; also called α-LTX
  stoichiometry N: 4 and 3 and 2
